In US10883090B2, “P-coumaroyl-CoA:monolignol transferases” (WISCONSIN ALUMNI RESEARCH FOUNDATION, priority 2017, dated 2021):
Entries after “also recorded” stand apart in the source; their conditions may differ.

B1: PvPMT: Panicum virgatum (switchgrass) p-coumaroyl-CoA:monolignol transferase, amino acid sequence SEQ ID NO:2, Pavir.J00672.1 (protein, listed as Panicum virgatum)
chain: MGTIGFPVTRTSRSLVAPSSATPQETLHLSVIDRVAGLRHLVRSLHVFDGRRGEAAVRTPAETLRAALGKALVDYYPLAGRFVEEDGEVRVACTAGGAWFVEAAAACTLEEVKHLDHPMVIPKEDLLPEPAPDVNPLDMPLMMQVTEFACGGFVVGLISVHTIADGLGAGQFINAVADYARGLPRPRVLPVWARDVIPAPSRIVSPPPRFDLLDLRYFTVDLSPEHIAKVKSSFFEATGQRCSAFDVCVAKTWQSRVRALRLDGDDPARPIHVCFFANTRHLLPQLAPGFYGNCFYTVRATRPCGEVAAAGVVEVVRAIRDAKARLGADFARWAAGGFERDPYELTFSYDSLFVSDWTRLGFLEADYGWGAPAHVVPFSYHPFMAVAVIGAPPAPKPGARVMTMCVTEKHLPEFQEQMNAFAAGNHQ
B2: SbPMT: Sorghum bicolor (sorghum) p-coumaroyl-CoA:monolignol transferase, amino acid sequence SEQ ID NO:4, Sb09g002910.1 (protein)
chain: MGTIDDTAGLFPVTRTNRSLVPPSSATPQETLRLSVIDRVAGLRHLVRSLHVFAGGENKKQAAPPAKSLREALGKALVDYYPFAGRFVEEDGEVRVACTGEGAWFVEAAAACSLEEVRHLDHPMLIPKEELLPEPAPGVNPLDMPLMMQVTEFTCGGFVVGLISVHTIADGLGAGQFINAVADYARGGATAGAVTRPRITPIWARDVIPDPPKMPAPPPRLDLLDLVYFTTDLSPDHIAKVKSSYLESTGQRCSAFDVCVARTWQARVRALRLPDAAAPVHVCFFANTRHLLPATAAAPASGFYGNCFYTVKATRPSGEVAAADIVDVVRAIRDAKARLAADFARWAAGGFDRDPYELTFTYDSLFVSDWTRLGFLEADYGWGTPTHVVPFSYHPFMAVAVIGAPPAPKPGARIMTMCVQEQHLPEFQEQMNQPCS
modifications: Sorghum bicolor

Key:
[1] = Activity screening of cell-free translated PMT enzymes with p-coumaroyl-CoA and monolignol mixture (LC-MS); type: biochemical; details: fed monolignols (H, G, S) and p-coumaroyl-CoA; FIGS. 3A, 4A, 9
Protocol: The active enzymes were produced using a wheat germ cell-free translation bilayer method previously reported (Makino, S., Beebe, E. T., Markley, J. L. and Fox, B. G. (2014) Cell-free protein synthesis for functional and structural studies. Methods in Molecular Biology, 1091, 161-178). Briefly, a translation reaction mixture consisting of 60 OD wheat germ extract (CellFree Sciences, Matsuyama, Japan), 0.04 mg/mL creatine kinase, 0.3 mM each amino acid, 12.6 mM HEPES-KOH, pH 7.8, 52.6 mM potassium acetate, 1.3 mM magnesium acetate, 0.2 mM spermidine HCl, 2.1 mM DTT, 0.6 mM ATP, 0.13 mM GTP, 8.4 mM creatine phosphate, and 0.003% sodium azide was prepared and combined with non-purified, fresh transcription at a ratio of 4 parts reaction mix to 1 part transcription. A feeding layer was prepared consisting of 0.3 mM each amino acid, 24 mM HEPES-KOH, pH 7.8, 100 mM potassium acetate, 2.5 mM magnesium acetate, 0.4 mM spermidine HCl, 4 mM DTT, 1.2 mM ATP, 0.25 mM GTP, 16 mM creatine phosphate, and 0.005% sodium azide, of which […] was added to wells of a U-bottom 96-well plate. 25 μL of the denser translation reaction mixture was carefully underlayed below the feeding layer, forming a bilayer. The plate was sealed and incubated at 22° C. for 18 h. The fully-diffused 150-μL bilayer reaction was then harvested and used for expression analysis by SDS-PAGE, and activity screening. […]

[2] = Activity screening of cell-free translated PMT enzymes with feruloyl-CoA and monolignol mixture (LC-MS); type: biochemical; details: fed monolignols (H, G, S) and feruloyl-CoA, FIGS. 3B, 4B, 10
Protocol: The active enzymes were produced using a wheat germ cell-free translation bilayer method previously reported (Makino, S., Beebe, E. T., Markley, J. L. and Fox, B. G. (2014) Cell-free protein synthesis for functional and structural studies. Methods in Molecular Biology, 1091, 161-178). Briefly, a translation reaction mixture consisting of 60 OD wheat germ extract (CellFree Sciences, Matsuyama, Japan), 0.04 mg/mL creatine kinase, 0.3 mM each amino acid, 12.6 mM HEPES-KOH, pH 7.8, 52.6 mM potassium acetate, 1.3 mM magnesium acetate, 0.2 mM spermidine HCl, 2.1 mM DTT, 0.6 mM ATP, 0.13 mM GTP, 8.4 mM creatine phosphate, and 0.003% sodium azide was prepared and combined with non-purified, fresh transcription at a ratio of 4 parts reaction mix to 1 part transcription. A feeding layer was prepared consisting of 0.3 mM each amino acid, 24 mM HEPES-KOH, pH 7.8, 100 mM potassium acetate, 2.5 mM magnesium acetate, 0.4 mM spermidine HCl, 4 mM DTT, 1.2 mM ATP, 0.25 mM GTP, 16 mM creatine phosphate, and 0.005% sodium azide, of which […] was added to wells of a U-bottom 96-well plate. 25 μL of the denser translation reaction mixture was carefully underlayed below the feeding layer, forming a bilayer. The plate was sealed and incubated at 22° C. for 18 h. The fully-diffused 150-μL bilayer reaction was then harvested and used for expression analysis by SDS-PAGE, and activity screening.
The enzyme mixture was screened for activity with p-coumaroyl-CoA (FIG. 2B) and feruloyl-CoA (FIG. 2C) and all three monolignols (FIG. 2A) (p-coumaryl, coniferyl, and sinapyl alcohol). Each enzyme was tested individually alongside positive and negative controls following the procedure previously reported (Withers, S., Lu, F., Kim, H., Zhu, Y., Ralph, J. and Wilkerson, C. G. (2012) Identification of a grass-specific enzyme that acylates monolignols with p-coumarate. Journal of Biological Chemistry, 287, 8347-8355). Briefly, the assay was initiated by adding 10 μL of wheat germ cell-free translation containing one of the PMT enzymes at a concentration of 1.5-2 μM to a reaction containing 50 mM sodium phosphate buffer, pH 6, 1 mM dithiothreitol (DTT), 1 mM CoA thioester, 1 mM monolignol mixture (each monolignol at 1 mM concentration), and deionized water in a final volume of 50 μL. After a 30-min incubation, the reaction was stopped by the addition of an equal volume 100 mM hydrochloric acid. Reaction products were solubilized by adjusting the solution to 50% methanol. An identical assay with no enzyme added was performed for every reaction. Samples were filtered through 0.2 μm filters prior to analysis by liquid chromatography-mass spectrometry (LC-MS). […]

| Molecule | p-coumaroyl-CoA:monolignol transferase activity (in words) [1] | feruloyl-CoA monolignol transferase activity (in words) [2] | feruloyl-CoA monolignol transferase activity (in words) ([2]; listed as SEQ ID NO:2) | feruloyl-CoA monolignol transferase activity (in words) ([2]; listed as SEQ ID NO:4) |
| --- | --- | --- | --- | --- |
| B1 | active PMTs, coupling monolignols to p-coumaroyl-CoA; also recorded: found to produce monolignol p-coumarate conjugates | limited to no feruloyl-CoA monolignol transferase activity; also recorded: little to no activity | no relevant activity in generating monolignol ferulates |  |
| B2 | active PMTs, coupling monolignols to p-coumaroyl-CoA; also recorded: found to produce monolignol p-coumarate conjugates | limited to no feruloyl-CoA monolignol transferase activity; also recorded: little to no activity |  | no relevant activity in generating monolignol ferulates |
